In patent US20200157212A1 (Pfizer, published 2020):

Key:
[1] = target: T1, Terbium (Tb) labeled-SNAP tagged ROBO2 expressed on HEK293 cells (Homo sapiens (Human), UniProt Q9HCK4 22-1378, terbium label on the SNAP tag); assay: HTRF, 5 nM d2-SLIT2-N on Tb-SNAP-ROBO2 HEK293 cells, 1 nM antibody
T1 construct: also called Tb-labeled ROBO2 cells; ROBO2 expressing cells; not shown: SNAP tag
T1 sequence: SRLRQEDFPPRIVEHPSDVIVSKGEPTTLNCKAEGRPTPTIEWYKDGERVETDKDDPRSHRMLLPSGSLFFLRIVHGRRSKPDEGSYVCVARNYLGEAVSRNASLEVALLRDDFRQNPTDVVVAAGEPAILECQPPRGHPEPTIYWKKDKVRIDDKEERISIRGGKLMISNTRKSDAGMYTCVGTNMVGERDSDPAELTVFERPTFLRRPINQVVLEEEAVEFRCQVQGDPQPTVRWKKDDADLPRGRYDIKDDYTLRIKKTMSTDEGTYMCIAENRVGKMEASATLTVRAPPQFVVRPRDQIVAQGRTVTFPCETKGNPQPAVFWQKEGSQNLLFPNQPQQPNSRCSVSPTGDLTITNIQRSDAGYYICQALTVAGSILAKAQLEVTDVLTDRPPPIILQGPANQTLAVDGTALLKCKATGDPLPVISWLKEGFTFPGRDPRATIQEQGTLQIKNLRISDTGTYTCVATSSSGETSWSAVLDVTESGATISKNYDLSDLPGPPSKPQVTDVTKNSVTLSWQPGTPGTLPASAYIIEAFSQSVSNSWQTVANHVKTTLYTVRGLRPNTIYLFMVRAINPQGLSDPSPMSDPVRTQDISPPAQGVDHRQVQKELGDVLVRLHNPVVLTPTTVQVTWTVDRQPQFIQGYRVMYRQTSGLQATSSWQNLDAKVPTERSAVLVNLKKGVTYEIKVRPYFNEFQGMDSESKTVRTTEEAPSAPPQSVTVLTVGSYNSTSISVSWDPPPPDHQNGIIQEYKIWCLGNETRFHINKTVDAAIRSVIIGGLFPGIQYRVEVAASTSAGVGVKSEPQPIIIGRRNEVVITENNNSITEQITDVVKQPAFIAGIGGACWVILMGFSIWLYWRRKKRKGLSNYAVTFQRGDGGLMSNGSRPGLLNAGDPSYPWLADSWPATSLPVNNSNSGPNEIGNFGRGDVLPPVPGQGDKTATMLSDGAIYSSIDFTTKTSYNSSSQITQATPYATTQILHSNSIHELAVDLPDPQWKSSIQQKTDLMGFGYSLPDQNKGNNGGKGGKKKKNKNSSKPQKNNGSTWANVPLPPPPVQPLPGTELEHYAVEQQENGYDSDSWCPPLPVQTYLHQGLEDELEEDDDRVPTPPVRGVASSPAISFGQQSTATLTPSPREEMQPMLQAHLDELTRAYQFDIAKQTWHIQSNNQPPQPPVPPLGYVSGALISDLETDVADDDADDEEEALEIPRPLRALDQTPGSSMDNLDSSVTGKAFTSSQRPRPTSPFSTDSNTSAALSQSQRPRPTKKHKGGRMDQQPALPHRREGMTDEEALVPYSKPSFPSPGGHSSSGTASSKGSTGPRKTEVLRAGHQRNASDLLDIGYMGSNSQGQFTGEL
Method in brief: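 Tb-SNAP-ROBO2 HEK293 cells incubated 1 hour with 5 nM d2-SLIT2-N, with 1 nM anti-ROBO2 antibody or none (maximal signal); cells alone gave minimum. HTRF read at 665/620 nm; IC50 series used 11-point, 5-fold dilutions from 1500 nM.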

[2] = target: T2, Human ROBO2 overexpressed on HEK293 cells (human, UniProt Q9HCK4 22-1378); assay: flow cytometry, Geo MFI ROBO2/ROBO1 HEK293 cells, 2.5 µg/ml
T2 construct: also called ROBO2 cells; native ROBO2
T2 sequence: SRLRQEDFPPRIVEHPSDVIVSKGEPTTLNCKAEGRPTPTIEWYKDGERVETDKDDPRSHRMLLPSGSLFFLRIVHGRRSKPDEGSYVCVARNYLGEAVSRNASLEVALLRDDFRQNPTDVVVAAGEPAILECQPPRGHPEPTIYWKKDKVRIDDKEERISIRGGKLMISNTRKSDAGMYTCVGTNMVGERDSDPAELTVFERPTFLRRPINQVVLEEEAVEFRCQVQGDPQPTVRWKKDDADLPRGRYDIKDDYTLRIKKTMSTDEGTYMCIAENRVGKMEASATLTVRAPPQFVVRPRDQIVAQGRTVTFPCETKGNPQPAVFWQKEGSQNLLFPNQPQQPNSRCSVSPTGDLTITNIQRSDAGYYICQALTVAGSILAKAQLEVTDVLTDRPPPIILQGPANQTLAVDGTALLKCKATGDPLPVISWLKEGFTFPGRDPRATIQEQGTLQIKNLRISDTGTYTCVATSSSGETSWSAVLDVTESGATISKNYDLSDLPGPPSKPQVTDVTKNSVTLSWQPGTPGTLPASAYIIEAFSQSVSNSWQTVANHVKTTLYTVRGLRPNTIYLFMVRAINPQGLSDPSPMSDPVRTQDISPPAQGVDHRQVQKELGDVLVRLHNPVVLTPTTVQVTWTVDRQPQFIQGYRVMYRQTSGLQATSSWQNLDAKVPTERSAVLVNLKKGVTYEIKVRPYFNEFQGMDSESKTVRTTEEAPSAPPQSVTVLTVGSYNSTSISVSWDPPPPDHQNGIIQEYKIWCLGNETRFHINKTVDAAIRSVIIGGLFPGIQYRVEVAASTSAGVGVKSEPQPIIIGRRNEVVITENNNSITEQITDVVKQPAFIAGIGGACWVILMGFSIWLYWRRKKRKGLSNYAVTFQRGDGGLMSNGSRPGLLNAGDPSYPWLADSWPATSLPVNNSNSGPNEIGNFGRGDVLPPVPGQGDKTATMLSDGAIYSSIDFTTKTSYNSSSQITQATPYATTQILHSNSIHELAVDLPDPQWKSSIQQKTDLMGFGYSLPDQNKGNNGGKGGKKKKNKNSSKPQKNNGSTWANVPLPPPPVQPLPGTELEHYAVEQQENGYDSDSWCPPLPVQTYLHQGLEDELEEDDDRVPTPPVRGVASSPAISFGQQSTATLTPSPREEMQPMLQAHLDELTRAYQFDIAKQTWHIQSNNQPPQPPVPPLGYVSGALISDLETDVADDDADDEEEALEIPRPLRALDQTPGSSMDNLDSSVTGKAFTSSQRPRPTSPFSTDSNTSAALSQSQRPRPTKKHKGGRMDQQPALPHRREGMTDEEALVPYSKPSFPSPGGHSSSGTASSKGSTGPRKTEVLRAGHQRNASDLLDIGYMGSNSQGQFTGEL
Description: Binding of the antibodies was detected using a secondary fluorochrome conjugated anti-human IgG F(ab′)₂ antibody and samples were analyzed on a Fortessa cytometer (BD Biosciences). The fold ROBO2 selectivity was calculated as the geometric mean fluorescence intensity (Geo MFI) with ROBO2 cells/Geo MFI with ROBO1 cells. A fold change higher than 3 was considered to be ROBO2 specific (Table 2, Fold Selectivity). Some affinity matured clones had increased ROBO1 reactivity, for example Abcs 55, CTI-R2-10 and CTIR2-13.
HTRF assays were run with 5 nM d2-labeled SLIT2-N and antibodies were added at 1 nM. […] Antibodies derived from chain (Abcs series) or CDR shuffling (CTIR-2 series) were evaluated in 11-point, 5-fold dilution series with a top concentration of 1500 nM, N.T. = not tested; ^cFold selectivity was calculated as Geometric Mean Fluorescent Intensity (Geo MFI) of ROBO2/Geo MFI of ROBO1 binding. […] Outcomes: results are listed in order of assays listed in the table (left to right), I.A. = Improved Affinity

[3] = target: T3, Human ROBO1 RSK mutant overexpressed on HEK293 cells (human, UniProt Q9Y6N7 26-1651); assay: flow cytometry, Geo MFI ROBO1-RSK/ROBO2-KSR HEK293 cells, 2.5 µg/ml
T3 construct: K137R and R139K already in the entry; also called ROBO1-RSK cells
T3 sequence (Q9Y6N7 other isoform, or with tags, fused parts or gaps mutant limits assumed): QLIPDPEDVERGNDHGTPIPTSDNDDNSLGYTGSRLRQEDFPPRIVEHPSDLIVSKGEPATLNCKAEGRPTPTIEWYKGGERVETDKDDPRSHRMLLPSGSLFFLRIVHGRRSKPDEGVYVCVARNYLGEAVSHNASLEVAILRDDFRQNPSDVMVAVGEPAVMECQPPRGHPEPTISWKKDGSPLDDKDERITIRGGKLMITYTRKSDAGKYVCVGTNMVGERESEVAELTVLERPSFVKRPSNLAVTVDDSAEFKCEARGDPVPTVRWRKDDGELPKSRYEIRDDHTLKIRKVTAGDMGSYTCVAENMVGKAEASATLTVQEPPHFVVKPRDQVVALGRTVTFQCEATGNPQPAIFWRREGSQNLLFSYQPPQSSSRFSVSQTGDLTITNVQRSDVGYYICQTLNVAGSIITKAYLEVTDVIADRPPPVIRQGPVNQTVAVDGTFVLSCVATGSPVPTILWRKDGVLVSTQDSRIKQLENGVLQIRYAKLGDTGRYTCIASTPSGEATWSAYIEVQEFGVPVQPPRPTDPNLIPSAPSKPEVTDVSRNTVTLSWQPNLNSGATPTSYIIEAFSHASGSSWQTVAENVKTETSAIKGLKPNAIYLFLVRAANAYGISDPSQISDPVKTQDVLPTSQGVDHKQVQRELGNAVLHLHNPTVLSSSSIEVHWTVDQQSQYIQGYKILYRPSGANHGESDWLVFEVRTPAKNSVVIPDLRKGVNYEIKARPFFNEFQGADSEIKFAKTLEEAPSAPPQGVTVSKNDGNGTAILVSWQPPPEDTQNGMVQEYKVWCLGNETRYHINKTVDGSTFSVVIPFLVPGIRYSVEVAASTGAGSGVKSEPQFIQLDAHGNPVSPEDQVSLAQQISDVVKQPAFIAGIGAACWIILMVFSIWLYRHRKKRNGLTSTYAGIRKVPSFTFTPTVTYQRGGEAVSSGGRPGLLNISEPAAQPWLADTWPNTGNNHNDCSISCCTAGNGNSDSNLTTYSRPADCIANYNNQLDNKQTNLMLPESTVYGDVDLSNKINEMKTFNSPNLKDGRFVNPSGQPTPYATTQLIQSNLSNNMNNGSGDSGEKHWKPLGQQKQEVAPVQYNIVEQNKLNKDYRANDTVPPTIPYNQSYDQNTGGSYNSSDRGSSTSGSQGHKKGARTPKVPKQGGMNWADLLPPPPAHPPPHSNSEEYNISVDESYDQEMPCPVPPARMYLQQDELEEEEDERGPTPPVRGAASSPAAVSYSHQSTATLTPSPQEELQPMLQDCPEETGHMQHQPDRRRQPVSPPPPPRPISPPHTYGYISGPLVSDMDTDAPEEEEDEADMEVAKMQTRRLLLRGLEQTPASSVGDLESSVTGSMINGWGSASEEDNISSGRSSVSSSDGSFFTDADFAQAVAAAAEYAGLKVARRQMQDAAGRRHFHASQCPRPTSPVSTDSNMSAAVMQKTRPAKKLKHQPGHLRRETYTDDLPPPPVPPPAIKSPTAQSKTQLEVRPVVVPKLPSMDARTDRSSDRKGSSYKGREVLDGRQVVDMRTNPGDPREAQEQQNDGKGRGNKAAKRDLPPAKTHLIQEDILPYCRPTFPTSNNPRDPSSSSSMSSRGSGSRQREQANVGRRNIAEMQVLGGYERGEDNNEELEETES

B1: 93H2 (antibody, human IgG1, kappa, V domains shown)
VH: EVQLVQSGAEVKKPGASVKVSCKASGYTFTGYYMHWVRQAPGQGLEWMGWINPNSGATNFPQKFQGRVTMTRDTSITTAYMDLSRLRSDDTAVYYCARESGDDAFDIWGQGTMVTVSS
VL: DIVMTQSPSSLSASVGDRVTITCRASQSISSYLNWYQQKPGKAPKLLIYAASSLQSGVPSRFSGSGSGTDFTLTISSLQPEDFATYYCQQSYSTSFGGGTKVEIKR
notes: also called parental 93H2; 93H2 mAb
HTRF Ratio [1]: 13800

B2: CTIR2-16 (antibody, human IgG1, kappa, V domains shown)
VH: EVQLVQSGAEVKKPGASVKVSCKASGYTFRGYAMHWVRQAPGQGLEWMGWIDPRTGLTKFPQKFQGRVTMTRDTSITTAYMDLSRLRSDDTAVYYCARESGDDAFDIWGQGTMVTVSS
VL: DIVMTQSPSSLSASVGDRVTITCRASQKISSYLNWYQQKPGKAPKLLIYAASSLQYGVPSRFSGSGSGTDFTLTISSLQPEDFATYYCQQSVGLFFGGGTKVEIKR
notes: CDR-shuffled IgG
Fold Selectivity for ROBO2/ROBO1 [2]: 6.2 fold | HTRF Ratio [1]: 3730 | Fold Selectivity for RSK/KSR [3]: 66.5 fold

B3: Abcs55 (antibody, human IgG1, kappa, V domains shown)
VH: EVQLVQSGAEVKKPGASVKVSCKASGYTFTGYYMHWVRQAPGQGLEWMGWINPKDGDTEFPQKFQGRVTMTRDTSITTAYMDLSRLRSDDTAVYYCARESGDDAFDIWGQGTMVTVSS
VL: DIVMTQSPSSLSASVGDRVTITCRASQSISSYLNWYQQKPGKAPKLLIYAASSLQYGVPSRFSGSGSGTDFTLTISSLQPEDFATYYCQQSYSTSFGGGTKVEIKR
notes: chain-shuffled IgG
Fold Selectivity for ROBO2/ROBO1 [2]: 1.5 fold | HTRF Ratio [1]: 3050 | Fold Selectivity for RSK/KSR [3]: 1.5 fold

B4: CTIR2-14 (antibody, human IgG1, kappa, V domains shown)
VH: EVQLVQSGAEVKKPGASVKVSCKASGYTFRGYAMHWVRQAPGQGLEWMGWIDPRTGLTKFPQKFQGRVTMTRDTSITTAYMDLSRLRSDDTAVYYCARESGDDAFDIWGQGTMVTVSS
VL: DIVMTQSPSSLSASVGDRVTITCRASQKISSYLNWYQQKPGKAPKLLIYAASSLQYGVPSRFSGSGSGTDFTLTISSLQPEDFATYYCQQSLELGFGGGTKVEIKR
notes: CDR-shuffled IgG
Fold Selectivity for ROBO2/ROBO1 [2]: 23.9 fold | HTRF Ratio [1]: 3710 | Fold Selectivity for RSK/KSR [3]: > 100 fold

B5: Abcs20 (antibody, human IgG1, kappa, V domains shown)
VH: EVQLVQSGAEVKKPGASVKVSCKASGYTFTGYYMHWVRQAPGQGLEWMGWINPKNGDTEFPQKFQGRVTMTRDTSITTAYMDLSRLRSDDTAVYYCARESGDDAFDIWGQGTMVTVSS
VL: DIVMTQSPSSLSASVGDRVTITCRASQSISSYLNWYQQKPGKAPKLLIYAASSLQSGVPSRFSGSGSGTDFTLTISSLQPEDFATYYCQQSVGLSFGGGTKVEIKR
notes: chain-shuffled IgG
Fold Selectivity for ROBO2/ROBO1 [2]: 5.2 fold | HTRF Ratio [1]: 3970 | Fold Selectivity for RSK/KSR [3]: 7 fold

B6: Abcs35 (antibody, human IgG1, kappa)
heavy: EVQLVQSGAEVKKPGASVKVSCKASGYTFTGYYMHWVRQAPGQGLEWMGWINPKNGDTEFPQKFQGRVTMTRDTSITTAYMDLSRLRSDDTAVYYCARESGDDAFDIWGQGTMVTVSSASTKGPSVFPLAPSSKSTSGGTAALGCLVKDYFPEPVTVSWNSGALTSGVHTFPAVLQSSGLYSLSSVVTVPSSSLGTQTYICNVNHKPSNTKVDKKVEPKSCDKTHTCPPCPAPEAAGAPSVFLFPPKPKDTLMISRTPEVTCVVVDVSHEDPEVKFNWYVDGVEVHNAKTKPREEQYNSTYRVVSVLTVLHQDWLNGKEYKCKVSNKALPAPIEKTISKAKGQPREPQVYTLPPSREEMTKNQVSLTCLVKGFYPSDIAVEWESNGQPENNYKTTPPVLDSDGSFFLYSKLTVDKSRWQQGNVFSCSVMHEALHNHYTQKSLSLSPGK
light: DIVMTQSPSSLSASVGDRVTITCRASQSISSYLNWYQQKPGKAPKLLIYAASSLQSGVPSRFSGSGSGTDFTLTISSLQPEDFATYYCQQSVGLFFGGGTKVEIKRTVAAPSVFIFPPSDEQLKSGTASVVCLLNNFYPREAKVQWKVDNALQSGNSQESVTEQDSKDSTYSLSSTLTLSKADYEKHKVYACEVTHQGLSSPVTKSFNRGEC
notes: fully human IgG1; VH of Ab96 with VL of Ab123
Fold Selectivity for ROBO2/ROBO1 [2]: 4.8 fold | HTRF Ratio [1]: 3940 | Fold Selectivity for RSK/KSR [3]: 6.6 fold

B7: Abcs40 (antibody, human IgG1, kappa, V domains shown)
VH: EVQLVQSGAEVKKPGASVKVSCKASGYTFTGYYMHWVRQAPGQGLEWMGWINPKDGDTEFPQKFQGRVTMTRDTSITTAYMDLSRLRSDDTAVYYCARESGDDAFDIWGQGTMVTVSS
VL: DIVMTQSPSSLSASVGDRVTITCRASQSISSYLNWYQQKPGKAPKLLIYAASSLQSGVPSRFSGSGSGTDFTLTISSLQPEDFATYYCQQSVGLFFGGGTKVEIKR
notes: chain-shuffled IgG
Fold Selectivity for ROBO2/ROBO1 [2]: 4.8 fold | HTRF Ratio [1]: 3390 | Fold Selectivity for RSK/KSR [3]: 9.3 fold

B8: Abcs25 (antibody, human IgG1, kappa, V domains shown)
VH: EVQLVQSGAEVKKPGASVKVSCKASGYTFTGYYMHWVRQAPGQGLEWMGWINPKDGDTEFPQKFQGRVTMTRDTSITTAYMDLSRLRSDDTAVYYCARESGDDAFDIWGQGTMVTVSS
VL: DIVMTQSPSSLSASVGDRVTITCRASQSISSYLNWYQQKPGKAPKLLIYAASSLQSGVPSRFSGSGSGTDFTLTISSLQPEDFATYYCQQSVGLSFGGGTKVEIKR
notes: chain-shuffled IgG
Fold Selectivity for ROBO2/ROBO1 [2]: 3.3 fold | HTRF Ratio [1]: 3880 | Fold Selectivity for RSK/KSR [3]: 8.1 fold

B9: CTIR2-15 (antibody, human IgG1, kappa, V domains shown)
VH: EVQLVQSGAEVKKPGASVKVSCKASGYTFRGYAMHWVRQAPGQGLEWMGWIDPRTGLTKFPQKFQGRVTMTRDTSITTAYMDLSRLRSDDTAVYYCARESGDDAFDIWGQGTMVTVSS
VL: DIVMTQSPSSLSASVGDRVTITCRASQKISSYLNWYQQKPGKAPKLLIYAASSLQYGVPSRFSGSGSGTDFTLTISSLQPEDFATYYCQQSVGLSFGGGTKVEIKR
notes: CDR-shuffled IgG
Fold Selectivity for ROBO2/ROBO1 [2]: 12.1 fold | HTRF Ratio [1]: 3750 | Fold Selectivity for RSK/KSR [3]: > 100 fold
